From patent US20110086767A1, “MUTANTS OF GLYCOSIDE HYDROLASES AND USES THEREOF FOR SYNTHESIZING COMPLEX OLIGOSACCHARIDES AND DISACCHARIDE INTERMEDIATES” (Institut Pasteur, priority 2008, published 2011)

B1: F229M: single mutant F229M of N. polysaccharea amylosucrase (protein)
chain: SPNSQYLKTRILDIYTPEQRAGIEKSEDWRQFSRRMDTHFPKLMNELDSVYGNNEALLPMLEMLLAQAWQSYSQRNSSLKDIDIARENNPDWILSNKQVGGVCYVDLFAGDLKGLKDKIPYFQELGLTYLHLMPLFKCPEGKSDGGYAVSSYRDVNPALGTIGDLREVIAALHEAGISAVVDFIFNHTSNEHEWAQRCAAGDPLFDNFYYIFPDRRMPDQYDRTLREIMPDQHPGGFSQLEDGRWVWTTFNSFQWDLNYSNPWVFRAMAGEMLFLANLGVDILRMDAVAFIWKQMGTSCENLPQAHALIRAFNAVMRIAAPAVFFKSEAIVHPDQVVQYIGQDECQIGYNPLQMALLWNTLATREVNLLHQALTYRHNLPEHTAWVNYVRSHDDIGWTFADEDAAYLGISGYDHRQFLNRFFVNRFDGSFARGVPFQYNPSTGDCRVSGTAAALVGLAQDDPHAVDRIKLLYSIALSTGGLPLIYLGDEVGTLNDDDWSQDSNKSDDSRWAHRPRYNEALYAQRNDPSTAAGQIYQDLRHMIAVRQSNPRFDGGRLVTFNTNNKHIIGYIRNNALLAFGNFSEYPQTVTAHTLQAMPFKAHDLIGGKTVSLNQDLTLQPYQVMWLEIA
B2: I228T-F290K: double mutant I228T, F290K of N. polysaccharea amylosucrase (protein)
chain: SPNSQYLKTRILDIYTPEQRAGIEKSEDWRQFSRRMDTHFPKLMNELDSVYGNNEALLPMLEMLLAQAWQSYSQRNSSLKDIDIARENNPDWILSNKQVGGVCYVDLFAGDLKGLKDKIPYFQELGLTYLHLMPLFKCPEGKSDGGYAVSSYRDVNPALGTIGDLREVIAALHEAGISAVVDFIFNHTSNEHEWAQRCAAGDPLFDNFYYIFPDRRMPDQYDRTLRETFPDQHPGGFSQLEDGRWVWTTFNSFQWDLNYSNPWVFRAMAGEMLFLANLGVDILRMDAVAKIWKQMGTSCENLPQAHALIRAFNAVMRIAAPAVFFKSEAIVHPDQVVQYIGQDECQIGYNPLQMALLWNTLATREVNLLHQALTYRHNLPEHTAWVNYVRSHDDIGWTFADEDAAYLGISGYDHRQFLNRFFVNRFDGSFARGVPFQYNPSTGDCRVSGTAAALVGLAQDDPHAVDRIKLLYSIALSTGGLPLIYLGDEVGTLNDDDWSQDSNKSDDSRWAHRPRYNEALYAQRNDPSTAAGQIYQDLRHMIAVRQSNPRFDGGRLVTFNTNNKHIIGYIRNNALLAFGNFSEYPQTVTAHTLQAMPFKAHDLIGGKTVSLNQDLTLQPYQVMWLEIA
B3: I228C-F229L: double mutant I228C, F229L of N. polysaccharea amylosucrase (protein)
chain: SPNSQYLKTRILDIYTPEQRAGIEKSEDWRQFSRRMDTHFPKLMNELDSVYGNNEALLPMLEMLLAQAWQSYSQRNSSLKDIDIARENNPDWILSNKQVGGVCYVDLFAGDLKGLKDKIPYFQELGLTYLHLMPLFKCPEGKSDGGYAVSSYRDVNPALGTIGDLREVIAALHEAGISAVVDFIFNHTSNEHEWAQRCAAGDPLFDNFYYIFPDRRMPDQYDRTLRECLPDQHPGGFSQLEDGRWVWTTFNSFQWDLNYSNPWVFRAMAGEMLFLANLGVDILRMDAVAFIWKQMGTSCENLPQAHALIRAFNAVMRIAAPAVFFKSEAIVHPDQVVQYIGQDECQIGYNPLQMALLWNTLATREVNLLHQALTYRHNLPEHTAWVNYVRSHDDIGWTFADEDAAYLGISGYDHRQFLNRFFVNRFDGSFARGVPFQYNPSTGDCRVSGTAAALVGLAQDDPHAVDRIKLLYSIALSTGGLPLIYLGDEVGTLNDDDWSQDSNKSDDSRWAHRPRYNEALYAQRNDPSTAAGQIYQDLRHMIAVRQSNPRFDGGRLVTFNTNNKHIIGYIRNNALLAFGNFSEYPQTVTAHTLQAMPFKAHDLIGGKTVSLNQDLTLQPYQVMWLEIA

Assay: HPLC screening of double-mutant libraries for variants able to glucosylate D-GlcpNAc
Format: biochemical
Conditions: α-D-Glcp-(1→4)-α-D-GlcpNAc (ED) from sucrose and D-GlcpNAc, microplate format
Experimental: The protocol was established to enable the rapid identification of clones for which D-GlcpNAc glucosylation was improved. To obtain higher amounts of enzymes and facilitate detection of glucosylated compounds upon HPLC screening, mutants were produced in 96-DeepWell Format plates. Storage microplates containing monomutants were thawed and replicated to inoculate a starter culture in 96-well microplates containing, in each well, 150 μL LB medium supplemented with ampicillin (100 μg/mL). After growth for 24 h at 30° C. under agitation (200 rpm), plates were duplicated into 96-Deep Well plates containing, in each well, 1.1 mL LB medium supplemented with ampicillin (100 μg/mL) and IPTG (1 mM) to induce GST-AS expression. Cultures were then grown for 24 h at 30° C. under agitation (200 rpm). Plates were centrifuged (20 min, 3000 g, 4° C.) and the supernatant was removed. The cell pellet was resuspended in 200 μL of lysozyme (0.5 mg/mL), followed by freezing at −80° C. for 8 to 12 h. After thawing at room temperature, 100 μL of sucrose and 100 μL of acceptor (each at a final concentration of 73 mM) were added to each well. Enzymatic reaction was incubated at 30° C. during 24 h under agitation. The DeepWell plates were then centrifuged (20 min, 3000 g, 4° C.) and 300 μL of the supernatant was transferred to a filter micro-plate (PVDF 0.2 μm) to be clarified. Supernatant filtration was carried out by centrifugation of the filter micro-plate (5 min, 2000 g, 4° C.) into a novel microplate for screening.
The method for the expression of the mutant libraries is described in Example 1-1.
Acceptor reaction products were analyzed by HPLC analysis using a C18-AQ column (Bischoff C18, 125×4 mm, 3 μm) kept at room temperature and eluted with 0.6 mL/min of ultra-pure water to detect α-D-Glcp-(1→4)-α-D-GlcpNAc formation (analysis time: 7 min). To evaluate the efficiency of the glucosylation reaction, it was carried out complementary HPLC analyses with a Biorad HPX-87K Carbohydrate Analysis column (maintained at 65° C., and eluted at a flow rate of 0.6 mL/min with ultra-pure water). By this way, it was possible to measure sucrose consumption by RI detection and concomitant α-D-Glcp-(1-4)-α-D-GlcpNAc formation by UV220 nm and determine mutant ability to synthesize the desired disaccharide α-D-Glcp-(1→4)-α-D-GlcpNAc (i.e., % Glucosyl units transferred onto acceptor derivatives=[Glucosyl units transferred onto acceptor derivatives]/[Glucosyl units transferred from initial sucrose]×100)
All clones producing sucrose-utilizing variants were then picked and cultured in 96-well microplates. Following cell lysis, the acceptor reaction in the presence of D-GlcpNAc was then carried out in microplate format. HLPC analysis time for each clone was reduced to 7 min for detection of α-D-Glcp-(1→4)-α-D-GlcpNAc. When disaccharide formation was detected, complementary analyses were performed to determine sucrose consumption and disaccharide formation with more accuracy in order to calculate the glucosylation yield.

Row | Molecule | Glusosylation Yield to synthesize ED [%]
1 | B1 | 79
2 | B2 | 72
3 | B3 | 78
